Laboratory results taken from publication PMC10715591, “EspB and HtpG interact with the type III-A CRISPR/Cas system of Mycobacterium tuberculosis” (Frontiers in Molecular Biosciences, 2023).

Target: T1, ESX-1 secretion-associated protein EspB (Mycobacterium tuberculosis H37Rv, UniProt P9WJD9 1-460)
T1 construct: also called Esx-1 secreted protein B
Test: SPR; Biacore 8K, 25°C; EspB covalently immobilised on a CM5 chip; analytes injected at 25-3,200 nM, 30 uL/min for 2 min; global fit to a 1:1 mass transport model
Conditions: both partners purified

T1 sequence (P9WJD9 whole entry): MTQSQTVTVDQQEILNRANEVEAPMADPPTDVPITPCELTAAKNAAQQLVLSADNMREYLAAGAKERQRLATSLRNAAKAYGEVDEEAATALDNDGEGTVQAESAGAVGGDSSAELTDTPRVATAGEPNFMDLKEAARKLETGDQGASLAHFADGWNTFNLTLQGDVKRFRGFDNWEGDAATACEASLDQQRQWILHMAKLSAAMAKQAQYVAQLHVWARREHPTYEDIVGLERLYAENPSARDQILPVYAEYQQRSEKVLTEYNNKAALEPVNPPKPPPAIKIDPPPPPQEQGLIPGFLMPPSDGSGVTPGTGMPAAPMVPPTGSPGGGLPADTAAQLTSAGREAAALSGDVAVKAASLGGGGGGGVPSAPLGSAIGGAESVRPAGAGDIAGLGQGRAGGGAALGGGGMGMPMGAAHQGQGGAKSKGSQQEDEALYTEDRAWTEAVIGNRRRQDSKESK

| Binder | Kd [pM] | koff [s⁻¹] | kon [M⁻¹ s⁻¹] |
| --- | --- | --- | --- |
| MtbCsm2 (natural protein) MSVIQDDYVKQAEVIRGLPKKKNGFELTTTQLRVLLSLTAQLFDEAQQSANPTLPRQLKEKVQYLRVRFVYQSGREDAVKTFVRNAKLLEALEGIGDSRDGLLRFCRYMEALAAYKKYLDPKDK | 125 | 8.3e-07 | 6660 |
| MtbCsm3 (natural protein) MTTSYAKIEITGTLTVLTGLQIGAGDGFSAIGAVDKPVVRDPLSRLPMIPGTSLKGKVRTLLSRQYGADTETFYRKPNEDHAHIRRLFGDTEEYMTGRLVFRDTKLTNKDDLEARGAKTLTEVKFENAINRVTAKANLRQMERVIPGSEFAFSLVYEVSFGTPGEEQKASLPSSDEIIEDFNAIARGLKLLELDYLGGSGTRGYGQVKFSNLKARAAVGALDGSLLEKLNHELAAV | 1900 | 0.000462 | 243000 |
| MtbCsm6 (natural protein) MILFSPIGTADPITALGDGPMLHIVRHYRPIVVVLFLSAEIAAFENADRRYSAAITRLAPETDVRIVTYTNPSVHRFDLFVPVFRNHLVELSAEFPDRTILLNTSSGTPAMQAALVAINVFGIPRTTAVQVSTPARALSKPGDRESPDAYDLELMWDANDDNQPGAPNRCFEATSAALGALLERANLKQLIVSYDYSAAVTIAADSRLPDQVSNLIRGAMHRSRLEHLVAPKFFKDTAFTYDPANKVAEYISALALLAKREQWAEFARSATPAITIVLRAAVAKHLPEDRYLDDMGRVDRRKLEREPEIRCALKHPPKSPNAEWYLYTKDWLALLRQFAPDRVGALEVLGRFESRVRNTAAHEIVSISEDRITKDGGLLPEQLLKILARETGADLTLYDRLNDEIIRQIDMAPLG | 31.6 | 5.83e-07 | 18400 |
